Here are results for one substance from publication PMC5615231.

The target in this experiment is recombinant Aβ42 peptide (UniProt P05067).

Chain of extracellular chaperone clusterin (P10909 23-227): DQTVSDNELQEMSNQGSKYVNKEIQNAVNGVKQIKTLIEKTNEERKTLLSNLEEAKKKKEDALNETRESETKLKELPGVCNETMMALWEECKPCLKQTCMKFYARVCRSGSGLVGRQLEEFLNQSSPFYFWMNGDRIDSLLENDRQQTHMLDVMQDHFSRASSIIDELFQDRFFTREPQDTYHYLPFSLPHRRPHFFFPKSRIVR
Chain of extracellular chaperone clusterin (P10909 228-449): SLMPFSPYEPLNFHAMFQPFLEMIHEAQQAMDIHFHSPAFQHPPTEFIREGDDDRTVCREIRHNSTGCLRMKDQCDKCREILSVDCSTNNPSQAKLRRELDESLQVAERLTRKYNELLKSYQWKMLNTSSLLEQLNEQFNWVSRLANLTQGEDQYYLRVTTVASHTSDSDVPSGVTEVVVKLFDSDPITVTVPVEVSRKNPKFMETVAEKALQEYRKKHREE

With “extracellular chaperone clusterin (from UniProt P10909 23-227; P10909 228-449) (natural protein)”, the concentration of clusterin required to reduce by half the Ca^2+ influx into lipid vesicles induced by Aβ42 oligomers (t2 aliquot; dilution series) came to 0.1 nM.
